This experiment deals with T1, PHEX (phosphate-regulating gene with homology to endopeptidase on the X chromosome), endogenous mouse protein (mouse, UniProt P70669 1-749).
T1 construct: Endogenous PHEX of mouse bone extracts (coIP); The same id stands for the endogenous PHEX of mouse MC3T3-E1 cells and of mice in the functional rows; also called bone metallo-endopeptidase PHEX
T1 sequence (looked up): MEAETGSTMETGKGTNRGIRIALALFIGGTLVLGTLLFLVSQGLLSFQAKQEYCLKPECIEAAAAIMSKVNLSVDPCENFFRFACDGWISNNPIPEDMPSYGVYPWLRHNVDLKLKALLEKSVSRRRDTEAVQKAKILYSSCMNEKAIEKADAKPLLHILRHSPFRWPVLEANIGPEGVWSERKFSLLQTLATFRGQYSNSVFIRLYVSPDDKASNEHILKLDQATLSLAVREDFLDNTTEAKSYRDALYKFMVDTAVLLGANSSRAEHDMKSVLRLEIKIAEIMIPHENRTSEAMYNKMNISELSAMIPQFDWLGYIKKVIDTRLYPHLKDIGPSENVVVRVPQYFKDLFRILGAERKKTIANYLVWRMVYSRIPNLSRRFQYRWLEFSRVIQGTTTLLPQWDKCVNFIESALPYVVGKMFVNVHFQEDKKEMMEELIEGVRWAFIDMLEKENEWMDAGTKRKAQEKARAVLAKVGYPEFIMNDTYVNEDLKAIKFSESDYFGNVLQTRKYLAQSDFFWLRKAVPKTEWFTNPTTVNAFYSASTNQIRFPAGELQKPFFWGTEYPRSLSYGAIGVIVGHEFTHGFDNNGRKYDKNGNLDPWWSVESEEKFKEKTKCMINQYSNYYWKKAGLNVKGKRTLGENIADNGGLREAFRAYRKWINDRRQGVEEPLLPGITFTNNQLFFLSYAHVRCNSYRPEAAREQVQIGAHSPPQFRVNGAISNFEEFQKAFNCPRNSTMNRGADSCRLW
As to the kind of experiment: coIP, anti-PHEX antibody-coated beads, mouse bone extracts, Western blot for DMP1. As to the method: FIGS. 4A-C. (FIG. 4A) PHEX binds to full length DMP1 and cDMP1. Bone protein extracts from WT and DMP1ko/cDMP1Tg were incubated with anti-PHEX antibody-coated beads. […] Negative control ((−) CTR) was obtained from uncoated beads to evaluate non-specific binding. […] The constant of dissociation (KD) between PHEX and the entire DMP1 protein reflecting binding affinity is as strong as the KD obtained previously between rPHEX and the small 19 amino acid MEPE-ASARM peptide. Data are normalized by non-specific binding at baseline and expressed as relative units (RU) of response difference. (FIG. 4C) Dose-dependent binding of rPHEX to rDMP1, represented by quantitation of the SPR sensorgram, confirms binding specificity.
Both PHEX and DMP1 are expressed by osteocytes. The ASARM sequence binds to PHEX. Co-immunoprecipitation (coIP) of PHEX and DMP1 were performed in endogenous bone protein extracts to test the presence of binding between PHEX and cDMP1. Magnetic beads were covalently coated with a PHEX antibody (Ab) and incubated with protein extracts isolated from WT or DMP1ko/cDMP1Tg mice. Detection of DMP1 in the protein pull-downs eluted from the beads was performed by Western Blot analysis using an Ab targeting the C-terminus region (FIG. 4A). […] In the DMP1ko/cDMP1Tg extracts in which full-length DMP1 is not expressed, only cDMP1 fragments were detected. […]
On the technique in general: Immunoblotting shows a protein as a band on a membrane.

B1: full-length DMP1 (dentin matrix protein 1), endogenous mouse protein, ~100 kDa (other, UniProt O55188 17-503, looked up)
chain: LPVARYHNTESESSEERTGDLAGSPPPPTNSESSEESQASPEGQANSDHTDSSESGEELGYDRGQYRPAGGLSKSTGTGADKEDDEDDSGDDTFGDEDNDLGPEEGQWGGPSKLDSDEDSTDTTQSSEDSTSQENSAQDTPSDSKDHDSEDEADSRPEAGDSTQDSESEEQRVGGGSEGESSHGDGSEFDDEGMQSDDPESTRSDRGHARMSSAGIRSEESKGDHEPTSTQDSDDSQSVEFSSRKSFRRSHVSEEDYRGELTDSNSRETQSDSTEDTASKEESRSESQEDTAESQSQEDSPEGQDPSSESSEEAGEPSQESSSESQEGVTSESRGDNPDNTSQAGDQEDSESSEEDSLNTFSSSESQSTEEQADSESNESLSLSEESQESAQDGDSSSQEGLQSQSASTESRSQESQSEQDSRSEEDSDSQDSSRSKEESNSTGSASSSEEDIRPKNMEADSRKLIVDAYHNKPIGDQDDNDCQDGY
On to B1, for which the binding result is “binds”.
